Kd data for seven molecules are collected here from patent publication CN112159469A (SHANGHAI PUBLIC HEALTH CLINICAL CT, dated 2021).

Numbering of substitutions follows the chain as printed.

The target in this test is SARS-CoV-2病毒的S1蛋白的RBD (SARS-CoV-2, UniProt P0DTC2 319-541). The experiment in a line: BLI (OctetRED96), antibody captured on AHC probe, RBD in solution from 100 nM in 3-fold dilutions, 1:1 global fit.

B1: 单抗4L12 (antibody, V domains shown)
VH: EVQLVESGGGLVQPGGSLRLSCAASGITVSSNYMNWVRQAPGRGLEWVSLLYSGGSTYYADSVKGRFTISRDNSKNTLYLQMNSLRAEDTAVYYCARDLITYGMDVWGQGTTVTVSS
VL: AIQLTQSPSSLSASVGDRVTITCRASQGISSYLAWYQQKPGKAPKLLIYAASTLQSGVPSRFSGSGSGTDFTLTISSLQPEDFATYYCQQLNSYPPLTFGGGTKVEIK
What is called Kd is the equilibrium constant for the complex coming apart. A low value points to higher affinity. The molecule B1 returned a Kd of 1.49 nM.

B2: 单抗12F5 (antibody, V domains shown)
VH: B1 VH with V12I, I27F, N35S, R43K, L50V, L51I, Y58F, T101D
VL: B1 VL with A1D, S10F, D70E, L97Y, G101Q, V105L
B2 showed a Kd of 2.22 nM.

B3: 单抗16L9 (antibody, V domains shown)
VH: EVQLVESGGGLIQPGGSLRLSCAASGFTVSSNYMSWVRQAPGKGLEWVSVIYSGGSTYYADSVKGRFTISRDNSENTLYLQMNSLRAEDTAVYYCARGEIQPYYYYGMDVWGQGTTVTVSS
VL: QSVLTQPPSASGSPGQSVTISCTGTSSDFGGYNSVSWYQQHPGKAPKLMIYEVSKRPSGVPDRFSGSKSGNTASLTVSGLQAEDEADYYCSSYAGSNNFDVFGTGTKVTVL
Molecule B3 registered a Kd of 1.21 nM.

B4: 单抗3D13 (antibody, V domains shown)
VH: EVQLVESGGGLIQPGGSLRLSCAASGLTVSSNYMSWVRQAPGKGLEWVSVIYSGGSAFYADSVKGRFTISRDNSKNTLYLQMNSLRAEDTAVYYCARDLSSAGGMDVWGQGTTVTVSS
VL: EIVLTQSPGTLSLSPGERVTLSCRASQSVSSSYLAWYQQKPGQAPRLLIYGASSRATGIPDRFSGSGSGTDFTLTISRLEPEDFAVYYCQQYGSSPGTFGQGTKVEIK
Molecule B4 displayed a Kd of 4.17 nM.

B5: 单抗20E21 (antibody, V domains shown)
VH: B4 VH with I12F, W47C, A57T, F58Y, L99R, S100G, S101M, A102L, G103H
VL: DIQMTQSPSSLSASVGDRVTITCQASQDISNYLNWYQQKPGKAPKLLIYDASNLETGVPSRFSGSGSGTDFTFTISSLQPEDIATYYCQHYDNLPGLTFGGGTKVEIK
Turning to B5, the Kd was 2.3 nM.

B6: 单抗10C2 (antibody, V domains shown)
VH: EVQLVESGGGLIQPGGSLRLSCAASGLTVSSNYMNWVRQAPGKGLEWVSVIYSGGSTYYADSVKGRFTISRDNSKNTLYLQMNSLRAEDTAVYYCARLLVATIRDFDYWGQGTLVTVSS
VL: not shown
Molecule B6 showed a Kd of 3.36 nM.

B7: 单抗22H22 (antibody, V domains shown)
VH: B6 VH with G10A, N35T, L98G, L99Y, V100G, A101D, T102Y, I103E, R104N, D105Y
VL: AIQLTQSPSSLSASVGDRVTITCRASQGISSYLAWYQQKPGKAPKLLIYAASTLQGGVPSRFSGSGSGTDFTLTISSLQPEDFATYYCQHLWTFGQGTKVEIK
For the molecule B7, the affinity, expressed as Kd, was 5.07 nM.
